For orientation: Kd means the free concentration of one partner at which half of the binding sites on the other are occupied at equilibrium, for simple one-to-one binding. The low end stands for tighter binding, the high end for weaker binding.

Two sequences from patent US6344321 can be followed below.

The target in this series is HGF (hepatocyte growth factor/scatter factor) (UniProt P14210+P14210). Nature of the series: filter. Conditions: 2'-F pyrimidines.
HGF (hepatocyte growth factor/scatter factor), sequence (P14210 32-494, chain 1 of 2): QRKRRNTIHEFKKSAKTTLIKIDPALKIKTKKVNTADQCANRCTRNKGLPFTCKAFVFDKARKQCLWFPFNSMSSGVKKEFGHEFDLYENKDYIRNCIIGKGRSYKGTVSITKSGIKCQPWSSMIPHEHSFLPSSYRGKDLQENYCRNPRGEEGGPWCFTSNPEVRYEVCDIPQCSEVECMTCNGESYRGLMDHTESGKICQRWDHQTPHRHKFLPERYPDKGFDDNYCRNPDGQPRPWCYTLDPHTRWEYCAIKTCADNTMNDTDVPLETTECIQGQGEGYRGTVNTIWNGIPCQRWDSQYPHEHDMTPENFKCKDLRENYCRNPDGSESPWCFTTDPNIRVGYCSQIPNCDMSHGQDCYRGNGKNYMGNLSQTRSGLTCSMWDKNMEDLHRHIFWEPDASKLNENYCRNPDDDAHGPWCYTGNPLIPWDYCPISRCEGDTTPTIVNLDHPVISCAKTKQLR
HGF (hepatocyte growth factor/scatter factor), sequence (P14210 495-728, chain 2 of 2): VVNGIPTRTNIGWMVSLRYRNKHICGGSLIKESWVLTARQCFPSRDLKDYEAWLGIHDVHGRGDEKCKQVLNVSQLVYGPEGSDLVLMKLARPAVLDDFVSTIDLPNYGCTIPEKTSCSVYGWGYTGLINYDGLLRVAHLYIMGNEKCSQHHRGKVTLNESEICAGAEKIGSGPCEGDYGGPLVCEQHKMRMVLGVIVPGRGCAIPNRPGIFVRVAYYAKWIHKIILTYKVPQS

As for “GGAGAGNUCCUAUUUAUGACAUCCCAUGCCCCCA [Tr65]”, under “one or two 5' G, one N in printed sequence”, the Kd came out at 1.4 nM.
In turn, “GGGAGGACGAUGCGGNNNNNNNNNNNNNNNNNNNNNNNNNNNNNNCAGACGACUCGCCCGA [random 30N7 pool]” registered a Kd (random pool, 550 nM with competitor tRNA) of 1.6 nM.
